Six molecules from patent US20070032403A1, “Crystal structure of the ITK kinase domain” (Boehringer Ingelheim Pharmaceuticals, Inc., priority 2003, published 2007) can be followed below.

Data set [1] deals with T1, GST-ITK/KD/G354 (wild-type ITK kinase domain) (Homo sapiens, UniProt Q08881).
T1 construct: made in house; host or cells: Spodoptera frugiperda Sf21 cells, baculovirus
Put plainly: Tec Family Kinase Assay (DELFIA), wild-type ITK kinase domain. In kind it is biochemical. The following applies: 15 μM ATP substrate mix.

Data set [2] addresses T2, GST-ITK/KD/G354/F437Y (ITK F437Y) (Homo sapiens, UniProt Q08881, F437Y).
T2 construct: made in house; host or cells: Spodoptera frugiperda Sf21 cells, baculovirus
Put plainly: Tec Family Kinase Assay (DELFIA), F437Y mutant ITK kinase domain. The data set is classed as biochemical. The following applies: for IC50: GST-ITK/KD/G354/F437Y mutant; for Fold Difference in IC50: ITK F437Y IC50 versus wild-type ITK IC50.

The subject of another data set is poly Glu4: Tyr1 (PGTYR). Put plainly: Catalytic activity of ITK kinase domain constructs (kinase assay). The data set is classed as biochemical. The settings on record: for Kinase Activity: Using 250 nM enzyme; for catalytic activity (in words): human ITK kinase domain fragments. As for the experimental part:
ITK is purified as a GST-fusion protein to test for catalytic activity. The kinase activity is measured using DELFIA (Dissociation Enhanced Lanthanide Fluoroimmunoassay) which utilizes europium chelate-labeled anti-phosphotyrosine antibodies to detect phosphate transfer to a random polymer, poly Glu4: Tyr1 (PGTYR). The screen utilizes the Zymark Allegro UHTS system to dispense reagents, buffers and samples for assay, and also to wash plates. The kinase assay is performed in kinase assay buffer (50 mM HEPES, pH 7.0, 25 mM MgCl2, 5 mM MnCl2, 50 mM KCl, 100 μM Na3VO4, 0.2% BSA, 0.01% CHAPS, 200 μM TCEP). Test samples initially dissolved in DMSO at 1 mg/mL, are pre-diluted for dose response (9 doses with starting final concentration of 3 μg/mL, 1 to 3 serial dilutions) with the assay buffer in 384-well polypropylene microtiter plates. […] Background wells are incubated with buffer, rather than 20 μL enzyme. The assay plates are incubated for 30 min at room temperature. Following incubation, the assay plates are washed three times with 100 μL wash buffer (50 mM Tris-HCL, pH 7.4, 150 mM NaCl, 0.05% Tween 20, 0.2% BSA). A 50 μL aliquot of europium-labeled anti-phosphotyrosine (Eu^3+-PT66, Wallac CR04-100) diluted in 50 mM Tris-HCl, pH 7.8, 150 mM NaCl, 10 μM DTPA, 0.05% Tween 40, 0.2% BSA, 0.05% BGG (1 nM final concentration) is added to each well and incubated for 30 min at room temperature. Upon completion of the incubation, the plate is washed four times with 100 μL of wash buffer and 50 μL of DELFIA Enhancement Solution (Wallac) is added to each well. After 15 min, time-resolved fluorescence is measured on the LJL's Analyst (excitation at 360 nm, emission at 620 nm, EU 400 Dichroic Mirror) after a delay time of 250 μs. An IC50 can be obtained by fitting the rates vs. compound/ligand concentration data into a simple competitive inhibitor model. Under these assay conditions, a 3-fold difference in compound potency (IC50) is considered within the variation of the assay. Preferred ligands will have an IC50<1000 nM.
A significant obstacle in the process of obtaining the 3-dimensional structure of a protein by X-ray crystallography is the identification of a protein fragment that is amenable to the formation of protein crystals of suitable quality. Since kinases often have multiple domains, one strategy that increases the likelihood of generating protein crystals of the kinase domain (catalytic) fragment has been to delete the other domains. Furthermore, by making a kinase domain fragment analogous to that of a related kinase for which a crystal structure has been determined, one may further increase the probability of generating suitable protein crystals. Using these concepts, the human ITK/KD/Q343 construct was generated. Theory predicts that a more compactly folded protein has a greater probability of producing high quality protein crystals. Therefore, the human ITK/KD/Q343 construct was subjected to limited proteolysis with trypsin to identify any fragments of the construct that are easily accessible to the protease and are thus likely to be less compactly folded. Using this strategy, the human ITK/KD/G354 and ITK/KD/S361 constructs were designed. To prioritize the three human ITK kinase domain protein fragments for crystallization trials, each was assayed for catalytic activity and for structural foldedness by circular dichroism-monitored thermal denaturation. […] Consequently, the ITK/KD/G354 construct was prioritized for structural studies since it was catalytically active and predicted to be tightly folded. To further increase the probability of obtaining suitable crystals, a murine construct (ITK/KD/G353) analogous to the human ITK/KD/G354 construct was generated. […]

The nature of data set [3]: Thermal denaturation of ITK constructs (circular dichroism-monitored). In kind it is physicochemical. The following applies: for Tm: 5 μM construct, pH 7.0 buffer, 230 nm, 2 to 100° C. at 0.2° C./min; for Tm comparison (in words): thermal denaturation studies. Here is the method: Thermal denaturation experiments were performed on a Jasco J-720 spectropolarimeter equipped with a Peltier thermostatic cell holder. For each measurement, a 1 cm quartz cuvette was loaded with 5 μM ITK kinase domain construct in a pH 7.0 buffer containing 10 mM sodium phosphate, 100 mM NaCl and 1 mM TCEP. Absorbance data at 230 nm was collected as the temperature was scanned from 2 to 100° C. at a ramp rate of 0.2° C./min. The melting temperature (Tm) for each sample was calculated as the maximum deflection point of the first derivative of the melting transition using Origin (version 7.0).
A significant obstacle in the process of obtaining the 3-dimensional structure of a protein by X-ray crystallography is the identification of a protein fragment that is amenable to the formation of protein crystals of suitable quality. Since kinases often have multiple domains, one strategy that increases the likelihood of generating protein crystals of the kinase domain (catalytic) fragment has been to delete the other domains. Furthermore, by making a kinase domain fragment analogous to that of a related kinase for which a crystal structure has been determined, one may further increase the probability of generating suitable protein crystals. Using these concepts, the human ITK/KD/Q343 construct was generated. Theory predicts that a more compactly folded protein has a greater probability of producing high quality protein crystals. Therefore, the human ITK/KD/Q343 construct was subjected to limited proteolysis with trypsin to identify any fragments of the construct that are easily accessible to the protease and are thus likely to be less compactly folded. Using this strategy, the human ITK/KD/G354 and ITK/KD/S361 constructs were designed. To prioritize the three human ITK kinase domain protein fragments for crystallization trials, each was assayed for catalytic activity and for structural foldedness by circular dichroism-monitored thermal denaturation. […] Consequently, the ITK/KD/G354 construct was prioritized for structural studies since it was catalytically active and predicted to be tightly folded. To further increase the probability of obtaining suitable crystals, a murine construct (ITK/KD/G353) analogous to the human ITK/KD/G354 construct was generated. This murine ITK kinase domain construct has 3 conservative and 7 non-conservative amino acid substitutions when compared with the human ITK/KD/G354 construct which may alter the conformation or surface properties of the protein thus providing alternative opportunities for crystal formation.

T1 sequence (Q08881 with tags, fused parts or gaps): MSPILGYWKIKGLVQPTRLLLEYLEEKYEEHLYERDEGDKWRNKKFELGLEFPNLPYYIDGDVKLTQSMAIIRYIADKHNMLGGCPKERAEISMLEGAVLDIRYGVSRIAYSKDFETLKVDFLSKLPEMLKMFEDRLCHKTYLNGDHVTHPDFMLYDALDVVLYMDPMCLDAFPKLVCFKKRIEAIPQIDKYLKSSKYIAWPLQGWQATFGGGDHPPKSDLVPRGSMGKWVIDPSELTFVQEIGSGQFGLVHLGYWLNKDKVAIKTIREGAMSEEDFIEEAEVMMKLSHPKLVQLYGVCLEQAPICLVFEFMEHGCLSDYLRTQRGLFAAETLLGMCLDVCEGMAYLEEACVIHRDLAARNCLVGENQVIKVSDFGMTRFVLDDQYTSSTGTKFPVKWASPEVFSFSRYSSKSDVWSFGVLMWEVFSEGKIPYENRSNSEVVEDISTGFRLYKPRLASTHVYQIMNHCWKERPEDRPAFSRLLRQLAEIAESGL
T2 sequence (Q08881 with tags, fused parts or gaps F437Y): as the sequence (Q08881 with tags, fused parts or gaps) above, with F311Y counted along it

In data set [1], `Cc1ccc2c(c1)nc(NC(=O)c1ccc(C#N)cc1)n2CCC(N)=O` [Compound 3] registered an IC50 of 440 nM. Moreover, in data set [2], the IC50 was 500 nM and the “Fold Difference in IC50” value was determined as 1.1.

Regarding `CN(C(=O)C1CCCCC1)c1ccc2c(c1)nc(NC(=O)c1ccc(C#N)cc1)n2CCCN1CCCC1=O` [Compound 7], in data set [1], the IC50 worked out at 15 nM. For the same molecule, in data set [2], the IC50 was 160 nM and the “Fold Difference in IC50” value worked out at 10.7.

Take `CNc1ccc2c(c1)nc(NC(=O)c1ccc(C#N)cc1)n2CCC(N)=O` [Compound 1]: the 50% inhibitory concentration (IC50) in data set [1] worked out at 460 nM. Further, in data set [2], 1200 nM corresponded to half-maximal inhibition (IC50) and the “Fold Difference in IC50” value is given as 2.6.

B1: ITK/KD/S361: human ITK kinase domain fragment comprising ITK residues 361-620 (SEQ ID NO. 12) (protein, listed as Homo sapiens)
chain: GSMSELTFVQEIGSGQFGLVHLGYWLNKDKVAIKTIREGAMSEEDFIEEAEVMMKLSHPKLVQLYGVCLEQAPICLVFEFMEHGCLSDYLRTQRGLFAAETLLGMCLDVCEGMAYLEEACVIHRDLAARNCLVGENQVIKVSDFGMTRFVLDDQYTSSTGTKFPVKWASPEVFSFSRYSSKSDVWSFGVLMWEVFSEGKIPYENRSNSEVVEDISTGFRLYKPRLASTHVYQIMNHCWKERPEDRPAFSRLLRQLAEIAESGL
On to B1, for which, in the data set with poly Glu4: Tyr1 (PGTYR), the “Kinase Activity” value is 30 Fluorescent Units and the “catalytic activity (in words)” value was “did not possess activity above background levels”. Besides, in data set [3], the Tm worked out at 72.8 °C and the “Tm comparison (in words)” value is recorded as “highest Tm”.

B2: ITK/KD/Q343: human ITK kinase domain fragment comprising ITK residues 343-620 (SEQ ID NO. 9) (protein, listed as Homo sapiens)
chain: GSMQKAPVTAGLRYGKWVIDPSELTFVQEIGSGQFGLVHLGYWLNKDKVAIKTIREGAMSEEDFIEEAEVMMKLSHPKLVQLYGVCLEQAPICLVFEFMEHGCLSDYLRTQRGLFAAETLLGMCLDVCEGMAYLEEACVIHRDLAARNCLVGENQVIKVSDFGMTRFVLDDQYTSSTGTKFPVKWASPEVFSFSRYSSKSDVWSFGVLMWEVFSEGKIPYENRSNSEVVEDISTGFRLYKPRLASTHVYQIMNHCWKERPEDRPAFSRLLRQLAEIAESGL
Take B2: in the data set with poly Glu4: Tyr1 (PGTYR), the “Kinase Activity” value is on record as 2000 Fluorescent Units and the “catalytic activity (in words)” value was “showed significant catalytic activity”. Besides, the Tm in data set [3] is 50.0 °C.

B3: ITK/KD/G354: human ITK kinase domain fragment comprising ITK residues 354-620 (SEQ ID NO. 1) (protein, listed as Homo sapiens)
chain: GSMGKWVIDPSELTFVQEIGSGQFGLVHLGYWLNKDKVAIKTIREGAMSEEDFIEEAEVMMKLSHPKLVQLYGVCLEQAPICLVFEFMEHGCLSDYLRTQRGLFAAETLLGMCLDVCEGMAYLEEACVIHRDLAARNCLVGENQVIKVSDFGMTRFVLDDQYTSSTGTKFPVKWASPEVFSFSRYSSKSDVWSFGVLMWEVFSEGKIPYENRSNSEVVEDISTGFRLYKPRLASTHVYQIMNHCWKERPEDRPAFSRLLRQLAEIAESGL
Regarding B3, in the data set on poly Glu4: Tyr1 (PGTYR), the “Kinase Activity” value is recorded as 910 Fluorescent Units and the “catalytic activity (in words)” value is “showed significant catalytic activity”. In addition, in data set [3], the Tm worked out at 67.2 °C and the “Tm comparison (in words)” value is “higher Tm than ITK/KD/Q343”.
